In patent US20250152746A1, “BASE EDITING OF ANGPTL3 AND METHODS OF USING SAME FOR TREATMENT OF DISEASE” (Verve Therapeutics, Inc., priority 2020, published 2025):
In the oligonucleotide strings, read from the 5' end, every base follows the letter of its sugar. An asterisk marks phosphorothioate; unmarked linkages are phosphodiester. Other units and linkages are bracketed, terminal groups are in braces. A string of capitals states the bases alone. m = 2'-O-methyl; r = 2'-OH (RNA)

What was measured:
PCSK9 gene [1] = assay: PCSK9 gRNA/SpCas9 editing in primary human hepatocytes (Tables 2, 4); type: cell-based; details: SpCas9 mRNA MS002 1:1 by weight; for Human Primary Hepatocyte Editing % 100: 100 ng/RNA/mL; for Human Primary Hepatocyte Editing % 500: 500 ng/RNA/mL; for Human Primary Hepatocyte Editing % 2500: 2500 ng/RNA/mL
Summary of the method: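 Editing at the PCSK9 site quantified by NGS of PCR amplicons from genomic DNA. Input: SpCas9 mRNA with gRNA, 1:1 by weight, transfected into primary human hepatocytes at 2500, 500 or 100 ng RNA/mL (tracr-modified guides at 2500, 1250, 500, 250 ng/mL).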

PCSK9 gene [2] = assay: PCSK9 gRNA/SpCas9 editing in primary cynomolgus hepatocytes (Tables 2, 22); type: cell-based, cynomolgus monkey; details: SpCas9 mRNA MS002 1:1 by weight; for Cyno Primary Hepatocyte Editing % 100: 100 ng/RNA/mL; for Cyno Primary Hepatocyte Editing % 500: 500 ng/RNA/mL; for Cyno Primary Hepatocyte Editing % 2500: 2500 ng/RNA/mL

Molecule	Human Primary Hepatocyte Editing % 100 (PCSK9 gene [1]) [%]	Human Primary Hepatocyte Editing % 500 (PCSK9 gene [1]) [%]	Human Primary Hepatocyte Editing % 2500 (PCSK9 gene [1]) [%]	Cyno Primary Hepatocyte Editing % 100 (PCSK9 gene [2]) [%]	Cyno Primary Hepatocyte Editing % 500 (PCSK9 gene [2]) [%]	Cyno Primary Hepatocyte Editing % 2500 (PCSK9 gene [2]) [%]
GA212: PCSK9 gRNA; protospacer CGGGATGCCGGCGTGGCCAA (SEQ ID NO: 206) (nucleic acid, sugars from the 5' end m3 r94 m3, linkages s3 o93 s3 (s phosphorothioate, o phosphodiester), T or U not given here) guide: CGGGAUGCCGGCGUGGCCAAGUUUUAGAGCUAGAAAUAGCAAGUUAAAAUAAGGCUAGUCCGUUAUCAACUUGAAAAAGUGGCACCGAGUCGGUGCUUUU	1.17	5.59	12.45	1.96	16.53	54.89
GA207: PCSK9 gRNA; protospacer GGAAATCGAGGGCAGGGTCA (SEQ ID NO: 201) (nucleic acid, sugars from the 5' end m3 r94 m3, linkages s3 o93 s3 (s phosphorothioate, o phosphodiester), T or U not given here) guide: GGAAAUCGAGGGCAGGGUCAGUUUUAGAGCUAGAAAUAGCAAGUUAAAAUAAGGCUAGUCCGUUAUCAACUUGAAAAAGUGGCACCGAGUCGGUGCUUUU	0.84	3.46	20.79	1.05	2.72	19.16
GA203: PCSK9 gRNA; protospacer TGACCCTGCCCTCGATTTCC (SEQ ID NO: 197) (nucleic acid, sugars from the 5' end m3 r94 m3, linkages s3 o93 s3 (s phosphorothioate, o phosphodiester), T or U not given here) guide: UGACCCUGCCCUCGAUUUCCGUUUUAGAGCUAGAAAUAGCAAGUUAAAAUAAGGCUAGUCCGUUAUCAACUUGAAAAAGUGGCACCGAGUCGGUGCUUUU	2.57	12.76	37.02	3.66	10.49	32.85
GA209: PCSK9 gRNA; protospacer CTTGGCAGTTGAGCACGCGC (SEQ ID NO: 203) (nucleic acid, sugars from the 5' end m3 r94 m3, linkages s3 o93 s3 (s phosphorothioate, o phosphodiester), T or U not given here) guide: CUUGGCAGUUGAGCACGCGCGUUUUAGAGCUAGAAAUAGCAAGUUAAAAUAAGGCUAGUCCGUUAUCAACUUGAAAAAGUGGCACCGAGUCGGUGCUUUU	0.02	8.76	33.23	3.59	13.96	40.78
GA213: PCSK9 gRNA; protospacer CGTGCTCAACTGCCAAGGGA (SEQ ID NO: 207) (nucleic acid, sugars from the 5' end m3 r94 m3, linkages s3 o93 s3 (s phosphorothioate, o phosphodiester), T or U not given here) guide: CGUGCUCAACUGCCAAGGGAGUUUUAGAGCUAGAAAUAGCAAGUUAAAAUAAGGCUAGUCCGUUAUCAACUUGAAAAAGUGGCACCGAGUCGGUGCUUUU	2.17	8.77	24.28	2.73	16.35	45.22
GA210: PCSK9 gRNA; protospacer CTGCGCGTGCTCAACTGCCA (SEQ ID NO: 204) (nucleic acid, sugars from the 5' end m3 r94 m3, linkages s3 o93 s3 (s phosphorothioate, o phosphodiester), T or U not given here) guide: CUGCGCGUGCUCAACUGCCAGUUUUAGAGCUAGAAAUAGCAAGUUAAAAUAAGGCUAGUCCGUUAUCAACUUGAAAAAGUGGCACCGAGUCGGUGCUUUU	0.04	5.86	14.3	4.5	19.72	54.88
GA158: PCSK9 gRNA; protospacer GCTAGCCTTGCGTTCCGAGG (SEQ ID NO: 152) (nucleic acid) guide: mG*mC*mU*rArGrCrCrUrUrGrCrGrUrUrCrCrGrArGrGrGrUrUrUrUrArGrArGrCrUrArGrArArArUrArGrCrArArGrUrUrArArArArUrArArGrGrCrUrArGrUrCrCrGrUrUrArUrCrArArCrUrUrGrArArArArArGrUrGrGrCrArCrCrGrArGrUrCrGrGrUrGrCrU*mU*mU*mU	2	6.55	37.94	1.04	4.42	18.27
GA214: PCSK9 gRNA; protospacer CCTTGGCCACGCCGGCATCC (SEQ ID NO: 208) (nucleic acid, sugars from the 5' end m3 r94 m3, linkages s3 o93 s3 (s phosphorothioate, o phosphodiester), T or U not given here) guide: CCUUGGCCACGCCGGCAUCCGUUUUAGAGCUAGAAAUAGCAAGUUAAAAUAAGGCUAGUCCGUUAUCAACUUGAAAAAGUGGCACCGAGUCGGUGCUUUU	1.94	6.28	22.92	3.06	14.84	50.35
GA211: PCSK9 gRNA; protospacer TGCGCGTGCTCAACTGCCAA (SEQ ID NO: 205) (nucleic acid, sugars from the 5' end m3 r94 m3, linkages s3 o93 s3 (s phosphorothioate, o phosphodiester), T or U not given here) guide: UGCGCGUGCUCAACUGCCAAGUUUUAGAGCUAGAAAUAGCAAGUUAAAAUAAGGCUAGUCCGUUAUCAACUUGAAAAAGUGGCACCGAGUCGGUGCUUUU	1.31	10.29	38.07	1.01	8.3	28.63
GA208: PCSK9 gRNA; protospacer CCAGCATACAGAGTGACCAC (SEQ ID NO: 202) (nucleic acid, sugars from the 5' end m3 r94 m3, linkages s3 o93 s3 (s phosphorothioate, o phosphodiester), T or U not given here) guide: CCAGCAUACAGAGUGACCACGUUUUAGAGCUAGAAAUAGCAAGUUAAAAUAAGGCUAGUCCGUUAUCAACUUGAAAAAGUGGCACCGAGUCGGUGCUUUU	1.38	5.72	25.76	1.15	6.01	25.07
GA206: PCSK9 gRNA; protospacer CCGGTGGTCACTCTGTATGC (SEQ ID NO: 200) (nucleic acid, sugars from the 5' end m3 r94 m3, linkages s3 o93 s3 (s phosphorothioate, o phosphodiester), T or U not given here) guide: CCGGUGGUCACUCUGUAUGCGUUUUAGAGCUAGAAAUAGCAAGUUAAAAUAAGGCUAGUCCGUUAUCAACUUGAAAAAGUGGCACCGAGUCGGUGCUUUU	0.85	2.7	20.73	0.84	2.73	16.9
GA205: PCSK9 gRNA; protospacer CCCTGCCCTCGATTTCCCGG (SEQ ID NO: 199) (nucleic acid, sugars from the 5' end m3 r94 m3, linkages s3 o93 s3 (s phosphorothioate, o phosphodiester), T or U not given here) guide: CCCUGCCCUCGAUUUCCCGGGUUUUAGAGCUAGAAAUAGCAAGUUAAAAUAAGGCUAGUCCGUUAUCAACUUGAAAAAGUGGCACCGAGUCGGUGCUUUU	3.74	12.42	38.04	3.01	12.04	36.43
GA159: PCSK9 gRNA; protospacer GCGTTCCGAGGAGGACGGCC (SEQ ID NO: 153) (nucleic acid) guide: mG*mC*mG*rUrUrCrCrGrArGrGrArGrGrArCrGrGrCrCrGrUrUrUrUrArGrArGrCrUrArGrArArArUrArGrCrArArGrUrUrArArArArUrArArGrGrCrUrArGrUrCrCrGrUrUrArUrCrArArCrUrUrGrArArArArArGrUrGrGrCrArCrCrGrArGrUrCrGrGrUrGrCrU*mU*mU*mU	1.35	3.74	14.68	1.19	3.69	12.21
GA204: PCSK9 gRNA; protospacer CACTCTGTATGCTGGTGTCT (SEQ ID NO: 198) (nucleic acid, sugars from the 5' end m3 r94 m3, linkages s3 o93 s3 (s phosphorothioate, o phosphodiester), T or U not given here) guide: CACUCUGUAUGCUGGUGUCUGUUUUAGAGCUAGAAAUAGCAAGUUAAAAUAAGGCUAGUCCGUUAUCAACUUGAAAAAGUGGCACCGAGUCGGUGCUUUU	1.27	8.98	24.98	0.91	5.27	19.37
